For assay [1], the target named is T1, αvβ3 integrin on human coronary artery smooth muscle cells (CASMCs) (human, UniProt P06756 31-1048; P05106 27-788).
T1 construct: whole, on cells; Endogenous receptor on sub-confluent cultured human CASMCs (Clonetics); It was identified as the ~300 kD crosslinked band by immunoprecipitation with an αvβ3 integrin antibody; also called approximately 300 kD cell surface protein on CASMCs
Kind of assay: 125I-OPN binding to sub-confluent CASMCs, displaced by unlabeled OPN, 37 °C 3 h; Scatchard analysis (LIGAND program).
Method: The radioactivity was measured by gamma counter and the specific binding was calculated by subtracting the non-specific binding from the total binding.

The target of assay [2] is T1, αvβ3 integrin on human coronary artery …. The assay is described as follows: competition with 125I-OPN in affinity crosslinking on CASMCs; GRGDS at 1 µM.
Method: After washing, the cells were incubated with 0.20 mM DSS in 1 ml HBSS, pH 7.6 at 37° C. for 30 min. The cells were scraped, collected by centrifugation and lysed in 40 µl of 1% Triton X-100 solution containing 1 mM PMSF, 20 µg/ml leupeptin and 2 mM EDTA.

T1 sequence (P06756 31-1048, chain 1 of 2): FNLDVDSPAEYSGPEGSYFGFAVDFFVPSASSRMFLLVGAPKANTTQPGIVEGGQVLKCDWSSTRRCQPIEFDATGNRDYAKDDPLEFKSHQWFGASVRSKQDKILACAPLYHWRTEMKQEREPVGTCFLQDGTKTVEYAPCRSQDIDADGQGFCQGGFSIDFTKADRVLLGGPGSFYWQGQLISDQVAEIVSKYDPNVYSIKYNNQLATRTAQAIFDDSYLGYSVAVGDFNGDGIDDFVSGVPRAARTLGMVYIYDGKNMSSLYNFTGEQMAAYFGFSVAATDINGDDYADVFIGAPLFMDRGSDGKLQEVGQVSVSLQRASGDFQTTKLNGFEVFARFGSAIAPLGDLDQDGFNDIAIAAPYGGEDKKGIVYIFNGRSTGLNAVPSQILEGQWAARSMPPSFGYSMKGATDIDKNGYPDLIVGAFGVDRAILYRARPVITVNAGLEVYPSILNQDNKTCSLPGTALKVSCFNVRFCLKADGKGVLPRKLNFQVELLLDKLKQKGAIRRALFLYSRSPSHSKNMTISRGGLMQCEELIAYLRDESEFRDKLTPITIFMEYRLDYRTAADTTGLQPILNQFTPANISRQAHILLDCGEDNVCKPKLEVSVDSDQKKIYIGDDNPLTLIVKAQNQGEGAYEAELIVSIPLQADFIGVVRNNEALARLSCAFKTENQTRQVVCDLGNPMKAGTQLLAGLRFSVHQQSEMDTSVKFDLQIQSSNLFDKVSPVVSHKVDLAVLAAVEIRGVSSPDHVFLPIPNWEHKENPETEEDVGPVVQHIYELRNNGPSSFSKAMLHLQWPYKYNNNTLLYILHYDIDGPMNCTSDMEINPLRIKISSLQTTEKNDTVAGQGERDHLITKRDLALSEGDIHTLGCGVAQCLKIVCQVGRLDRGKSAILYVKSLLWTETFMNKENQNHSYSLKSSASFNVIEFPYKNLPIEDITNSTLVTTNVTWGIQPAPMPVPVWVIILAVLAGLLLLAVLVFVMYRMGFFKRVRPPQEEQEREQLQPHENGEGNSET
T1 sequence (P05106 27-788, chain 2 of 2): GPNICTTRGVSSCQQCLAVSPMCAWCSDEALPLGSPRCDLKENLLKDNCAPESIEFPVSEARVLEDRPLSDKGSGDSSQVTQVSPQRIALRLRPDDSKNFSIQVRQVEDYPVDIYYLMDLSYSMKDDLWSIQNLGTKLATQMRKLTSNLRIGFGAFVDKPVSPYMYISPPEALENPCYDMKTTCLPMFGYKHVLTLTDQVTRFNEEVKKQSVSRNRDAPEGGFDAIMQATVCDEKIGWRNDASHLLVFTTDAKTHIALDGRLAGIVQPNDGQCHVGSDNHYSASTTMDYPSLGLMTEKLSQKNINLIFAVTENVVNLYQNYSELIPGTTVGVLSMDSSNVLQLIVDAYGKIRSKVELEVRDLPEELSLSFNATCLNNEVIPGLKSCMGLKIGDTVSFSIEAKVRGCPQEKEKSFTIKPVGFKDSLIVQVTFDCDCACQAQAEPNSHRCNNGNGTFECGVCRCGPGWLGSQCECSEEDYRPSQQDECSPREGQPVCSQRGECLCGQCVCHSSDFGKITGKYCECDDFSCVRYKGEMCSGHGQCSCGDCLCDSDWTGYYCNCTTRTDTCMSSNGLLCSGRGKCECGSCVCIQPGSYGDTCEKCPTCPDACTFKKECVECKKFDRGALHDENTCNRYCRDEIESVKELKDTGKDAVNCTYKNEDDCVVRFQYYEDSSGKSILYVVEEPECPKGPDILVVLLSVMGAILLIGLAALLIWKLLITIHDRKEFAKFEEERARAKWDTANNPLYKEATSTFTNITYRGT

B1: human osteopontin (purified hOPN) (ligand)
chain: not shown
modifications: radioiodinated (125I, Chloramine-T method) when used as tracer; labelled residues not stated; the natural protein is described as a glycosylated phosphoprotein
In the case of B1, the Kd in assay [1] came out at 1 nM.

Turning to GRGDS (also called GRGDS peptide) [Gly-Arg-Gly-Asp-Ser (GRGDS) oligopeptide], in assay [2], the binding result was “binds”.

By Kd is commonly meant the concentration at which binding is half-saturated.
